Assay results taken from patent US20250155449A1.

Assays:
[1] = target: biotinylated IgG from human serum (Rockland Immunochemicals) (human); experiment: BLI (Octet), equilibrium titration of soluble analyte on biotinylated hIgG on streptavidin tips
[2] = target: biotinylated IgG from human serum (Rockland Immunochemicals) (human); experiment: BLI, equilibrium KD, soluble sample on immobilized hIgG
[3] = target: biotinylated IgG from human serum (Rockland Immunochemicals) (human); experiment: BLI, kinetic fit values (1:1 model), soluble sample on immobilized hIgG

Ab+Inv HC17 (HP6017 with invertase fused to the C-terminus of the heavy chain by an AS(G4S)3 linker), sequence (heavy): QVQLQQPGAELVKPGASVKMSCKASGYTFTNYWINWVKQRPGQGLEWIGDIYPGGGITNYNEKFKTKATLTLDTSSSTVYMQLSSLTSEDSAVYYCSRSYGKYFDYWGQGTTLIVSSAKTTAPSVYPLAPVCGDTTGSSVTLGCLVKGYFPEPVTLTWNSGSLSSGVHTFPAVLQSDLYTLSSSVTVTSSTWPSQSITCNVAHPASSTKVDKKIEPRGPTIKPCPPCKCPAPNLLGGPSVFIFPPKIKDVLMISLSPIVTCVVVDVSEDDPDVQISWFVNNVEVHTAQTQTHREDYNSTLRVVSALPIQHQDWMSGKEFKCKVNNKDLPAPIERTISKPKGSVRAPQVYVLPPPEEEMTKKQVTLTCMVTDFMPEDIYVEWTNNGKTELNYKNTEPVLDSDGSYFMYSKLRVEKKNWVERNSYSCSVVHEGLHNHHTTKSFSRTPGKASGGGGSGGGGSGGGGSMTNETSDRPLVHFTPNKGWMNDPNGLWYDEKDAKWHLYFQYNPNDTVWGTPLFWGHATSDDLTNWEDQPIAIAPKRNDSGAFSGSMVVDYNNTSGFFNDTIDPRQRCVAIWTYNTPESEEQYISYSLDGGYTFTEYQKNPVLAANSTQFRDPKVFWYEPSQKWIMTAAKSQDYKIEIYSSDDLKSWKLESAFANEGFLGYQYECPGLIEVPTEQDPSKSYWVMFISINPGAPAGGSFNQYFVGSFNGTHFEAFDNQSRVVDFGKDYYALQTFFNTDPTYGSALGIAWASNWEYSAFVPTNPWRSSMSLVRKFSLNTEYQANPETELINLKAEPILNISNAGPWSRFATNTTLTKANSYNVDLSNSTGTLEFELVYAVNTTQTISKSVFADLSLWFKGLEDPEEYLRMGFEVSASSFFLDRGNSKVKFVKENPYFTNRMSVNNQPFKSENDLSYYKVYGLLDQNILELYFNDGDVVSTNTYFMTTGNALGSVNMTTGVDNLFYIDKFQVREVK
Ab+Inv HC17 (HP6017 with invertase fused to the C-terminus of the heavy chain by an AS(G4S)3 linker), sequence (light): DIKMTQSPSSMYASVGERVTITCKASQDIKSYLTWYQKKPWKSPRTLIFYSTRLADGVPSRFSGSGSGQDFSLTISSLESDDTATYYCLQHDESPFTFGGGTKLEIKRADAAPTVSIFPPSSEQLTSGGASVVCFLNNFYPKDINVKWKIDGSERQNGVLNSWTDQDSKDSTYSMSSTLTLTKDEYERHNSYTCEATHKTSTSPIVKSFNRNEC
Ab+Inv LC15 (HP6017 with invertase fused to the C-terminus of the light chain by a (G4S)3 linker), sequence (heavy): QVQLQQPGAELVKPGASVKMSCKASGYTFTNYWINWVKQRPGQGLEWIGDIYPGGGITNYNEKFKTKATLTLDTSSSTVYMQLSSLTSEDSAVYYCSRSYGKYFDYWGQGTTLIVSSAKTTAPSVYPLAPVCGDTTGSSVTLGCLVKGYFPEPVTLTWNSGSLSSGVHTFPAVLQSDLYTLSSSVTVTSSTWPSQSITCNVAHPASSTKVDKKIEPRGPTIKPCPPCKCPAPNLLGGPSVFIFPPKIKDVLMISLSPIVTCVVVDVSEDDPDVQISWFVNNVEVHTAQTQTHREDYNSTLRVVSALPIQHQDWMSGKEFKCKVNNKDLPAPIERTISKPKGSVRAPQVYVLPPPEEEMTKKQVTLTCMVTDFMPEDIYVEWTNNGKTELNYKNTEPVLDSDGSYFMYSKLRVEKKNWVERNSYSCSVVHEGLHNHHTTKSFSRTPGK
Ab+Inv LC15 (HP6017 with invertase fused to the C-terminus of the light chain by a (G4S)3 linker), sequence (light): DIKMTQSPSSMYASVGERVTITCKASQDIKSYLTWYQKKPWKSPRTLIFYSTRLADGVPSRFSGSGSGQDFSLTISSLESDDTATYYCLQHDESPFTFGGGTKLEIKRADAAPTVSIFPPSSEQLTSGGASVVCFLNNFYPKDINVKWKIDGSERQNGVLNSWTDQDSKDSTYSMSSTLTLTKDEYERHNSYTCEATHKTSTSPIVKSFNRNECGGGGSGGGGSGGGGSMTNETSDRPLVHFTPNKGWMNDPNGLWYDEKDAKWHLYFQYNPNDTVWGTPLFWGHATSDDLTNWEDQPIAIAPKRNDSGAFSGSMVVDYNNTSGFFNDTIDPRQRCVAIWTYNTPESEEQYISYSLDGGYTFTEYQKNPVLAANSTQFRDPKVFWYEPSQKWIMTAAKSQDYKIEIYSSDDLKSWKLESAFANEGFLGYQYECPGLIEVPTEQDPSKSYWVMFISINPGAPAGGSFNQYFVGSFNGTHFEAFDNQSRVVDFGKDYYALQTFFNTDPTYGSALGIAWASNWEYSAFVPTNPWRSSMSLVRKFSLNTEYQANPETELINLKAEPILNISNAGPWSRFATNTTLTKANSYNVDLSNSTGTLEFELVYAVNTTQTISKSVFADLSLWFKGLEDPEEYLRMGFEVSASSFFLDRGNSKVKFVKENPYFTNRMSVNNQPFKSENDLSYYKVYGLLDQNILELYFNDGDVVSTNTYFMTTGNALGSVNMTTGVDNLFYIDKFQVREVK
Ab+Inv LC25 (HP6017 with invertase fused to the C-terminus of the light chain by a (G4S)5 linker), sequence (light): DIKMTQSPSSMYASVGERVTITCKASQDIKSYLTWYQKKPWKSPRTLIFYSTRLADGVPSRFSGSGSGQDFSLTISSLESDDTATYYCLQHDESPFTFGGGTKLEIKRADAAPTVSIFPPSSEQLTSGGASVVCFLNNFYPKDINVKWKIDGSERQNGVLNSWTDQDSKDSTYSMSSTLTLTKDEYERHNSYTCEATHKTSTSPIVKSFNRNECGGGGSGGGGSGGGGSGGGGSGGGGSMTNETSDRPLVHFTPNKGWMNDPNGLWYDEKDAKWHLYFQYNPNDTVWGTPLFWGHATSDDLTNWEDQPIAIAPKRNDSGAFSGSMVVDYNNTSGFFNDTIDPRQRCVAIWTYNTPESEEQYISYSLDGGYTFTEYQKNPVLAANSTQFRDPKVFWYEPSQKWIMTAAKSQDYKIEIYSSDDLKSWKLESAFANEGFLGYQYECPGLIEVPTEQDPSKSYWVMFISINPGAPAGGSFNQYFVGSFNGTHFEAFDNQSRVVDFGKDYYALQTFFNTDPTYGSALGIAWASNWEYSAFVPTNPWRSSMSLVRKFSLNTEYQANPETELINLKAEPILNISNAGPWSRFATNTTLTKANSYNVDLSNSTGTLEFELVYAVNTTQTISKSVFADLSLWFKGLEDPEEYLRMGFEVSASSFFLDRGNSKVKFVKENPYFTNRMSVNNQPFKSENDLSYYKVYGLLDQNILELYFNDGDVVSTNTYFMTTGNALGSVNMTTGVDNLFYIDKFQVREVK
Ab+Inv HC27 (HP6017 with invertase fused to the C-terminus of the heavy chain by an AS(G4S)5 linker), sequence (heavy): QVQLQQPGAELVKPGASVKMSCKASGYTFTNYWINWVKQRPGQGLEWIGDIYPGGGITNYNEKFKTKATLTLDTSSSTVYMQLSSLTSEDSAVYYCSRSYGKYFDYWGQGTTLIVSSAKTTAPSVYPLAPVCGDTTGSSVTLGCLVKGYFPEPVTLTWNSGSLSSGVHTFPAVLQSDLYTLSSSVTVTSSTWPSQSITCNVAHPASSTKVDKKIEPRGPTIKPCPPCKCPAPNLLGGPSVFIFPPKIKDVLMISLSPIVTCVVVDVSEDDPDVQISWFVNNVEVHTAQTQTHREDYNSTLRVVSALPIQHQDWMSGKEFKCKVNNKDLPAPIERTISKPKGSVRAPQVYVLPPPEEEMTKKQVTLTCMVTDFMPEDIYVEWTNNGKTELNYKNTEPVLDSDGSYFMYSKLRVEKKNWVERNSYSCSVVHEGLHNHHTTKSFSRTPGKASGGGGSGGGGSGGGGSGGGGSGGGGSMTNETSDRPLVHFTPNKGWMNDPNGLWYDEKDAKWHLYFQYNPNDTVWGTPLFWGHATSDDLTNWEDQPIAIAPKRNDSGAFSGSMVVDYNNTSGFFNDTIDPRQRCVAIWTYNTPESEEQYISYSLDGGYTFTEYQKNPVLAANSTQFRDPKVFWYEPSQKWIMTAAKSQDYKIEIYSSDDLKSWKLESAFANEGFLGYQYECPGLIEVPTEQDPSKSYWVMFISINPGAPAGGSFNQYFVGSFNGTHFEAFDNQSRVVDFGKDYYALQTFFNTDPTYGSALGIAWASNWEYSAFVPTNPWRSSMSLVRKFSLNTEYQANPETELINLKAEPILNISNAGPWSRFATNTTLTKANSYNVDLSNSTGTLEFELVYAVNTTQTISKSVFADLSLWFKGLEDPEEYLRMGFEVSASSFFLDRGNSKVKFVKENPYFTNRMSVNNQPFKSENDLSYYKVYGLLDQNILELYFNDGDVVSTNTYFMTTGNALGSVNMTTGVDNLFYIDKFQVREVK

recombinant antibody HP6017 (anti-human IgG, mouse IgG2a kappa)
EC50 (read off the curve) [1]: 20 nM
Kd [2]: 18 nM
Kd [3]: < 0.001 nM
koff [3]: < 1e-07 s⁻¹
kon [3]: 490000 M⁻¹ s⁻¹

Ab+Inv HC27 (HP6017 with invertase fused to the C-terminus of the heavy chain by an AS(G4S)5 linker)
EC50 (read off the curve) [1]: 30 nM
Kd [2]: 25 nM
Kd [3]: < 0.001 nM
koff [3]: < 1e-07 s⁻¹
kon [3]: 450000 M⁻¹ s⁻¹

Ab+Inv LC15 (HP6017 with invertase fused to the C-terminus of the light chain by a (G4S)3 linker)
EC50 (read off the curve) [1]: 20 nM
Kd [2]: 16 nM
Kd [3]: < 0.001 nM
koff [3]: < 1e-07 s⁻¹
kon [3]: 1.46e+06 M⁻¹ s⁻¹

Ab+Inv HC17 (HP6017 with invertase fused to the C-terminus of the heavy chain by an AS(G4S)3 linker)
EC50 (read off the curve) [1]: 20 nM
Kd [2]: 21 nM
Kd [3]: < 0.001 nM
koff [3]: < 1e-07 s⁻¹
kon [3]: 430000 M⁻¹ s⁻¹

Ab+Inv LC25 (HP6017 with invertase fused to the C-terminus of the light chain by a (G4S)5 linker)
Kd [2]: 17 nM
Kd [3]: < 0.001 nM
koff [3]: < 1e-07 s⁻¹
kon [3]: 1.61e+06 M⁻¹ s⁻¹
